Laboratory results as given in publication PMC8481289 (2021).

Tests used:
[1] = target: UBA5 333–404 (human, UniProt Q9GZZ9 333-404); assay: ITC
[2] = target: UBA5 Y372A (human, UniProt Q9GZZ9 1-404, Y372A); assay: ITC
Sequence of UBA5 Y372A (Q9GZZ9 whole entry Y372A): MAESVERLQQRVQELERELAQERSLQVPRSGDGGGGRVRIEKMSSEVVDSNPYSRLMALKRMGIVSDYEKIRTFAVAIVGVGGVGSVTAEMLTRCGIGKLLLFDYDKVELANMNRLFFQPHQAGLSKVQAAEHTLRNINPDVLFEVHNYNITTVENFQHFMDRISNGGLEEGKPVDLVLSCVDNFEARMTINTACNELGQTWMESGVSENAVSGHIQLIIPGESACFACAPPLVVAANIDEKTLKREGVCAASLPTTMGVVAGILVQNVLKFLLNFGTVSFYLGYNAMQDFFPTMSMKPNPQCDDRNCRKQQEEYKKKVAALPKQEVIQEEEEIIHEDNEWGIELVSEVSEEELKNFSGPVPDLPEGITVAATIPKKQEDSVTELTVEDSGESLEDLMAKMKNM

Sequence of UBA5 333–404 (Q9GZZ9 333-404): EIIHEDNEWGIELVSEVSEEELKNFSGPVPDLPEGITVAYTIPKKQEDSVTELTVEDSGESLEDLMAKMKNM

Kd [1]: 2500 nM
Kd [2]: 1900 nM
B1: UFC1 (WT) (enzyme)
chain: MADEATRRVVSEIPVLKTNAGPRDRELWVQRLKEEYQSLIRYVENNKNADNDWFRLESNKEGTRWFGKCWYIHDLLKYEFDIEFDIPITYPTTAPEIAVPELDGKTAKMYRGGKICLTDHFKPLWARNVPKFGLAHLMALGLGPWLAVEIPDLIQKGVIQHKEKCNQ
